Assay results from the supplement of paper PMC5998384.

Experiments:
HeLa Kyoto [1] = assay: thermal stability score vs G1/S (z-score of summed log2 fold changes over temperatures); higher = more thermally stable than in G1/S
HeLa Kyoto [2] = assay: solubility change mitosis vs G1/S (difference of NP-40 vs SDS log2 ratios) (log2 ratio difference); higher = more soluble in mitosis
HeLa Kyoto [3] = assay: solubility in G1/S (NP-40 vs SDS abundance) (log2 ratio); higher = more soluble; conditions: cell cycle stage: G1/S
HeLa Kyoto [4] = assay: melting temperature (median over replicates), in situ; higher = more thermally stable
[5] = cell cycle stage: early G1 (4.5 h after nocodazole release)
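Throughout, for melting temperature (median over replicates), in situ: HeLa Kyoto cells synchronized by double thymidine or nocodazole block, proteins quantified by TMT10plex mass spectrometry, three independent biological replicates.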
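Throughout, for solubility change mitosis vs G1/S (difference of NP-40 vs SDS log2 ratios): synchronized HeLa Kyoto cells (double thymidine block for G1/S, nocodazole release for mitosis), protein amounts in NP-40 versus SDS lysates quantified by mass spectrometry, three biological replicates.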
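Throughout, for solubility in G1/S (NP-40 vs SDS abundance): HeLa Kyoto cells arrested at G1/S by double thymidine block, proteins quantified by TMT10plex mass spectrometry in mild NP-40 versus SDS extracts, three biological replicates.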
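Throughout, for thermal stability score vs G1/S (z-score of summed log2 fold changes over temperatures): synchronized HeLa Kyoto cells, proteins quantified by TMT10plex mass spectrometry, three biological replicates, mitosis taken 0.5 h after nocodazole release, G1/S directly after double thymidine block.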

Row | Sequence | thermal stability score (HeLa Kyoto [1]; [5]) | thermal stability score (HeLa Kyoto [1]; cell cycle stage: mitosis) | solubility change mitosis (log2) (HeLa Kyoto [2]) | solubility in G1/S (log2) (HeLa Kyoto [3]) | melting temperature (HeLa Kyoto [4]; cell cycle stage: G1/S) [°C] | melting temperature (HeLa Kyoto [4]; cell cycle stage: mitosis) [°C]
1 | MGTRLPLVLRQLRRPPQPPGPPRRLRVPCRASSGGGGGGGGGREGLLGQRRPQDGQARSSCSPGGRTPAARDSIVREVIQNSKEVLSLLQEKNPAFKPVLAIIQAGDDNLMQEINQNLAEEAGLNITHICLPPDSSEAEIIDEILKINEDTRVHGLALQISENLFSNKVLNALKPEKDVDGVTDINLGKLVRGDAHECFVSPVAKAVIELLEKSGVNLDGKKILVVGAHGSLEAALQCLFQRKGSMTMSIQWKTRQLQSKLHEADIVVLGSPKPEEIPLTWIQPGTTVLNCSHDFLSGKVGCGSPRIHFGGLIEEDDVILLAAALRIQNMVSSGRRWLREQQHRRWRLHCLKLQPLSPVPSDIEISRGQTPKAVDVLAKEIGLLADEIEIYGKSKAKVRLSVLERLKDQADGKYVLVAGITPTPLGEGKSTVTIGLVQALTAHLNVNSFACLRQPSQGPTFGVKGGAAGGGYAQVIPMEEFNLHLTGDIHAITAANNLLAAAIDTRILHENTQTDKALYNRLVPLVNGVREFSEIQLARLKKLGINKTDPSTLTEEEVSKFARLDIDPSTITWQRVLDTNDRFLRKITIGQGNTEKGHYRQAQFDIAVASEIMAVLALTDSLADMKARLGRMVVASDKSGQPVTADDLGVTGALTVLMKDAIKPNLMQTLEGTPVFVHAGPFANIAHGNSSVLADKIALKLVGEEGFVVTEAGFGADIGMEKFFNIKCRASGLVPNVVVLVATVRALKMHGGGPSVTAGVPLKKEYTEENIQLVADGCCNLQKQIQITQLFGVPVVVALNVFKTDTRAEIDLVCELAKRAGAFDAVPCYHWSVGGKGSVDLARAVREAASKRSRFQFLYDVQVPIVDKIRTIAQAVYGAKDIELSPEAQAKIDRYTQQGFGNLPICMAKTHLSLSHQPDKKGVPRDFILPISDVRASIGAGFIYPLVGTMSTMPGLPTRPCFYDIDLDTETEQVKGLF [MTHFD1L] | -0.3 | 0.0484 | -0.101 | 0.247 | 51.7 | 51.5
2 | MGVPAFFRWLSRKYPSIIVNCVEEKPKECNGVKIPVDASKPNPNDVEFDNLYLDMNGIIHPCTHPEDKPAPKNEDEMMVAIFEYIDRLFSIVRPRRLLYMAIDGVAPRAKMNQQRSRRFRASKEGMEAAVEKQRVREEILAKGGFLPPEEIKERFDSNCITPGTEFMDNLAKCLRYYIADRLNNDPGWKNLTVILSDASAPGEGEHKIMDYIRRQRAQPNHDPNTHHCLCGADADLIMLGLATHEPNFTIIREEFKPNKPKPCGLCNQFGHEVKDCEGLPREKKGKHDELADSLPCAEGEFIFLRLNVLREYLERELTMASLPFTFDVERSIDDWVFMCFFVGNDFLPHLPSLEIRENAIDRLVNIYKNVVHKTGGYLTESGYVNLQRVQMIMLAVGEVEDSIFKKRKDDEDSFRRRQKEKRKRMKRDQPAFTPSGILTPHALGSRNSPGSQVASNPRQAAYEMRMQNNSSPSISPNTSFTSDGSPSPLGGIKRKAEDSDSEPEPEDNVRLWEAGWKQRYYKNKFDVDAADEKFRRKVVQSYVEGLCWVLRYYYQGCASWKWYYPFHYAPFASDFEGIADMPSDFEKGTKPFKPLEQLMGVFPAASGNFLPPSWRKLMSDPDSSIIDFYPEDFAIDLNGKKYAWQGVALLPFVDERRLRAALEEVYPDLTPEETRRNSLGGDVLFVGKHHPLHDFILELYQTGSTEPVEVPPELCHGIQGKFSLDEEAILPDQIVCSPVPMLRDLTQNTVVSINFKDPQFAEDYIFKAVMLPGARKPAAVLKPSDWEKSSNGRQWKPQLGFNRDRRPVHLDQAAFRTLGHVMPRGSGTGIYSNAAPPPVTYQGNLYRPLLRGQAQIPKLMSNMRPQDSWRGPPPLFQQQRFDRGVGAEPLLPWNRMLQTQNAAFQPNQYQMLAGPGGYPPRRDDRGGRQGYPREGRKYPLPPPSGRYNWN [XRN2] | 1.15 | 0.632 | 0.128 | -0.126 | 50.2 | 50.4
3 | MGVQGLWKLLECSGRQVSPEALEGKILAVDISIWLNQALKGVRDRHGNSIENPHLLTLFHRLCKLLFFRIRPIFVFDGDAPLLKKQTLVKRRQRKDLASSDSRKTTEKLLKTFLKRQAIKTAFRSKRDEALPSLTQVRRENDLYVLPPLQEEEKHSSEEEDEKEWQERMNQKQALQEEFFHNPQAIDIESEDFSSLPPEVKHEILTDMKEFTKRRRTLFEAMPEESDDFSQYQLKGLLKKNYLNQHIEHVQKEMNQQHSGHIRRQYEDEGGFLKEVESRRVVSEDTSHYILIKGIQAKTVAEVDSESLPSSSKMHGMSFDVKSSPCEKLKTEKEPDATPPSPRTLLAMQAALLGSSSEEELESENRRQARGRNAPAAVDEGSISPRTLSAIKRALDDDEDVKVCAGDDVQTGGPGAEEMRINSSTENSDEGLKVRDGKGIPFTATLASSSVNSAEEHVASTNEGREPTDSVPKEQMSLVHVGTEAFPISDESMIKDRKDRLPLESAVVRHSDAPGLPNGRELTPASPTCTNSVSKNETHAEVLEQQNELCPYESKFDSSLLSSDDETKCKPNSASEVIGPVSLQETSSIVSVPSEAVDNVENVVSFNAKEHENFLETIQEQQTTESAGQDLISIPKAVEPMEIDSEESESDGSFIEVQSVISDEELQAEFPETSKPPSEQGEEELVGTREGEAPAESESLLRDNSERDDVDGEPQEAEKDAEDSLHEWQDINLEELETLESNLLAQQNSLKAQKQQQERIAATVTGQMFLESQELLRLFGIPYIQAPMEAEAQCAILDLTDQTSGTITDDSDIWLFGARHVYRNFFNKNKFVEYYQYVDFHNQLGLDRNKLINLAYLLGSDYTEGIPTVGCVTAMEILNEFPGHGLEPLLKFSEWWHEAQKNPKIRPNPHDTKVKKKLRTLQLTPGFPNPAVAEAYLKPVVDDSKGSFLWGKPDLDKIREFCQRYFGWNRTKTDESLFPVLKQLDAQQTQLRIDSFFRLAQQEKEDAKRIKSQRLNRAVTCMLRKEKEAAASEIEAVSVAMEKEFELLDKAKGKTQKRGITNTLEESSSLKRKRLSDSKGKNTCGGFLGETCLSESSDGSSSEDAESSSLMNVQRRTAAKEPKTSASDSQNSVKEAPVKNGGATTSSSSDSDDDGGKEKMVLVTARSVFGKKRRKLRRARGRKRKT [ERCC5] | 0.19 | 1.18 | -0.0796 | -0.112 | 50.7 | 51.4
4 | MGVTCVSQMPVAEGKSVQQTVELLTRKLEMLGAEKQGTFCVDCETYHTAASTLGSQGQTGKLMYVMHNSEYPLSCFALFENGPCLIADTNFDVLMVKLKGFFQSAKASKIETRGTRYQYCDFLVKVGTVTMGPSARGISVEVEYGPCVVASDCWSLLLEFLQSFLGSHTPGAPAVFGNRHDAVYGPADTMVQYMELFNKIRKQQQVPVAGIR [MED20] | -0.587 | -0.494 | -0.0509 | 0.339 | 51.7 | 52.7
5 | MGWVGGRRRDSASPPGRSRSAADDINPAPANMEGGGGSVAVAGLGARGSGAAAATVRELLQDGCYSDFLNEDFDVKTYTSQSIHQAVIAEQLAKLAQGISQLDRELHLQVVARHEDLLAQATGIESLEGVLQMMQTRIGALQGAVDRIKAKIVEPYNKIVARTAQLARLQVACDLLRRIIRILNLSKRLQGQLQGGSREITKAAQSLNELDYLSQGIDLSGIEVIENDLLFIARARLEVENQAKRLLEQGLETQNPTQVGTALQVFYNLGTLKDTITSVVDGYCATLEENINSALDIKVLTQPSQSAVRGGPGRSTMPTPGNTAALRASFWTNMEKLMDHIYAVCGQVQHLQKVLAKKRDPVSHICFIEEIVKDGQPEIFYTFWNSVTQALSSQFHMATNSSMFLKQAFEGEYPKLLRLYNDLWKRLQQYSQHIQGNFNASGTTDLYVDLQHMEDDAQDIFIPKKPDYDPEKALKDSLQPYEAAYLSKSLSRLFDPINLVFPPGGRNPPSSDELDGIIKTIASELNVAAVDTNLTLAVSKNVAKTIQLYSVKSEQLLSTQGDASQVIGPLTEGQRRNVAVVNSLYKLHQSVTKVVSSQSSFPLAAEQTIISALKAIHALMENAVQPLLTSVGDAIEAIIITMHQEDFSGSLSSSGKPDVPCSLYMKELQGFIARVMSDYFKHFECLDFVFDNTEAIAQRAVELFIRHASLIRPLGEGGKMRLAADFAQMELAVGPFCRRVSDLGKSYRMLRSFRPLLFQASEHVASSPALGDVIPFSIIIQFLFTRAPAELKSPFQRAEWSHTRFSQWLDDHPSEKDRLLLIRGALEAYVQSVRSREGKEFAPVYPIMVQLLQKAMSALQ [COG5] | 0.309 | 0.873 | -0.0443 | 0.00411 | 48.3 | 48
6 | MGYFRCARAGSFGRRRKMEPSTAARAWALFWLLLPLLGAVCASGPRTLVLLDNLNVRETHSLFFRSLKDRGFELTFKTADDPSLSLIKYGEFLYDNLIIFSPSVEDFGGNINVETISAFIDGGGSVLVAASSDIGDPLRELGSECGIEFDEEKTAVIDHHNYDISDLGQHTLIVADTENLLKAPTIVGKSSLNPILFRGVGMVADPDNPLVLDILTGSSTSYSFFPDKPITQYPHAVGKNTLLIAGLQARNNARVIFSGSLDFFSDSFFNSAVQKAAPGSQRYSQTGNYELAVALSRWVFKEEGVLRVGPVSHHRVGETAPPNAYTVTDLVEYSIVIQQLSNGKWVPFDGDDIQLEFVRIDPFVRTFLKKKGGKYSVQFKLPDVYGVFQFKVDYNRLGYTHLYSSTQVSVRPLQHTQYERFIPSAYPYYASAFSMMLGLFIFSIVFLHMKEKEKSD [DDOST] | 2.5 | 2.41 | -0.163 | -0.0357 | 54.1 | 54.2
7 | MHDAFEPVPILEKLPLQIDCLAAWEEWLLVGTKQGHLLLYRIRKDVVPADVASPESGSCNRFEVTLEKSNKNFSKKIQQIHVVSQFKILVSLLENNIYVHDLLTFQQITTVSKAKGASLFTCDLQHTETGEEVLRMCVAVKKKLQLYFWKDREFHELQGDFSVPDVPKSMAWCENSICVGFKRDYYLIRVDGKGSIKELFPTGKQLEPLVAPLADGKVAVGQDDLTVVLNEEGICTQKCALNWTDIPVAMEHQPPYIIAVLPRYVEIRTFEPRLLVQSIELQRPRFITSGGSNIIYVASNHFVWRLIPVPMATQIQQLLQDKQFELALQLAEMKDDSDSEKQQQIHHIKNLYAFNLFCQKRFDESMQVFAKLGTDPTHVMGLYPDLLPTDYRKQLQYPNPLPVLSGAELEKAHLALIDYLTQKRSQLVKKLNDSDHQSSTSPLMEGTPTIKSKKKLLQIIDTTLLKCYLHTNVALVAPLLRLENNHCHIEESEHVLKKAHKYSELIILYEKKGLHEKALQVLVDQSKKANSPLKGHERTVQYLQHLGTENLHLIFSYSVWVLRDFPEDGLKIFTEDLPEVESLPRDRVLGFLIENFKGLAIPYLEHIIHVWEETGSRFHNCLIQLYCEKVQGLMKEYLLSFPAGKTPVPAGEEEGELGEYRQKLLMFLEISSYYDPGRLICDFPFDGLLEERALLLGRMGKHEQALFIYVHILKDTRMAEEYCHKHYDRNKDGNKDVYLSLLRMYLSPPSIHCLGPIKLELLEPKANLQAALQVLELHHSKLDTTKALNLLPANTQINDIRIFLEKVLEENAQKKRFNQVLKNLLHAEFLRVQEERILHQQVKCIITEEKVCMVCKKKIGNSAFARYPNGVVVHYFCSKEVNPADT [VPS39] | 0.627 | 0.376 | -0.261 | -0.174 | 50.8 | 50.1
8 | MHPAVFLSLPDLRCSLLLLVTWVFTPVTTEITSLDTENIDEILNNADVALVNFYADWCRFSQMLHPIFEEASDVIKEEFPNENQVVFARVDCDQHSDIAQRYRISKYPTLKLFRNGMMMKREYRGQRSVKALADYIRQQKSDPIQEIRDLAEITTLDRSKRNIIGYFEQKDSDNYRVFERVANILHDDCAFLSAFGDVSKPERYSGDNIIYKPPGHSAPDMVYLGAMTNFDVTYNWIQDKCVPLVREITFENGEELTEEGLPFLILFHMKEDTESLEIFQNEVARQLISEKGTINFLHADCDKFRHPLLHIQKTPADCPVIAIDSFRHMYVFGDFKDVLIPGKLKQFVFDLHSGKLHREFHHGPDPTDTAPGEQAQDVASSPPESSFQKLAPSEYRYTLLRDRDEL [ERP44] | 5.67 | 6.88 | -0.0724 | 0.277 | 53.9 | 54.1
